Experimental data taken from the DeepSol protein solubility set.

Assay: soluble on expression in E. coli; label from the status in PepcDB or PDB records

| Sequence | soluble on expression in E. coli |
| --- | --- |
| MKPSVILYKALPDDLLQRLQEHFTVHQVANLSPQTVEQNAAIFAEAEGLLGSNENVNAALLEKMPKLRATSTISVGYDNFDVDALTARKILLMHTPTVLTETVADTLMALVLSTARRVVEVAERVKAGEWTASIGPDWYGTDVHHKTLGIVGMGRIGMALAQRAHFGFNMPILYNARRHHKEAEERFNARYCDLDTLLQESDFVCLILPLTDETHHLFGAEQFAKMKSSAIFINAGRGPVVDENALIAALQKGEIHAAGLDVFEQEPLSVDSPLLSMANVVAVPHIGSATHETRYGMAACAVDNLIDALQGKVEKNCVNPHVAD | soluble |
| NRGIEFSGGRNYVVKFDQPVSSEAVRSALSSPLQEKVLVTSIGTEGTEVRISTNYKIQEESEETEAEITDKLYQSLKGFYTQQPTADQFLDNIISSQKVSPSMSSDITRGA | not soluble |
| MITLPQLITTDTDMTAGLTSGKTTGSAEDFLALLAGALGADGAQGKDARITLADLQAAGGKLSKELLTQHGEPGQAVKLADLLAQKANATDETLTDLTQAQHLLSTLTPSLKTSALAALSKTAQHDEKTPALSDEDLASLSALFAMLPGQPVATPVAGETPAENHIALPSLLRGDMPSAPQEETHTLSFSEHEKGKTEASLARASDDRATGPALTPLVVAAAATSAKVEVDSPPAPVTHGAAMPTLSSATAQPLPVASAPVLSAPLGSHEWQQTFSQQVMLFTRQGQQSAQLRLHPEELGQVHISLKLDDNQAQLQMVSPHSHVRAALEAALPMLRTQLAESGIQLGQSSISSESFAGQQQSSSQQQSSRAQHTDAFGAEDDIALAAPASLQAAARGNGAVDIFA | not soluble |
| MSLKYNNCVIGSRSVFPPRGLQETNIGIVHISDINHYYTLNLSRKIENHLSKLTGAGTGDSVEDSMFLATMEAYERLANSIPVSQQVIASQEELGDLAVPLSDFPKMNQSETSSNGIEKKYLRWSESYNLTDQSRCYIPQVYINLYTHFNYNGEGLTHPISTGCAIHQDYTRAVINGIYEVIERDGIALFWLLKRPLKKLDKQEFIDDLEIFSSPFLGKTTLYDASTINGVYTFCLRAETHFSESIRNVVMFSSNTCPKEAISKLKKELISVIYSLANGIEKQSNLLKQDPMSFYHVDEGALYMAHPSKAYAFEFLNNSSKGSIPTNEIQFSSYGEELRYLIKKLEGLGHKVYVTNLSNRECEENQLKAVKVTIPSLQPISFVHSAREGHHHHHH | not soluble |
| MLVNGKWTADWQPVQKADDHGRFVRQVSSFRNWITPDGSAGPTGTGGFAAEAGRYRLYVALICPWASRTLMARRLKGLDGLIPVTVVNPVMGTQGWEFGGHDDAEEDPLFGARHLHEIYTRAEPQFTGRATVPVLWDMKRDAMVNNESADILRMFDTAFEGLAPSDLRLYPAALAGEIDALNAQVYDRLNNGVYKAGFASTQEAYDEAVAGVFEMLDHLEYRLTGDYIFGGALTETDIRIFVTLIRFDAAYHGLFKTNRRQIADYPRLWAYMRRILARPGVRETVNMDHITRGYYSIKALNPSRIRPVGPAHIEAALRETAAGI | not soluble |
| MIELKEVVKEYRTKNKEVLAVDHVNLSIRAGSIYGVIGFSGAGKSTLIRMFNHLEAPTSGEVIIDGDHIGQLSKNGLRAKRQKVNMIFQHFNLLWSRTVLKNIMFPLEIAGVPRRRAKQKALELVELVGLKGREKAYPSELSGGQKQRVGIARALANDPTVLLCDEATSALDPQTTDEILDLLLKIREQQNLTIVLITHEMHVIRRICDEVAVMESGKVIEHGPVTQVFENPQHTVTKRFVKEDLNDDFETSLTELEPLEKDAYIVRLVFAGSTTTEPIVSSLSTAYDIKINILEANIKNTKNGTVGFLVLHIPYISSVDFGKFEKELIERQVKMEVLRHG | not soluble |
| NRLKDSKAKSRVVILLTDGSNNMGDITPRMAADIARTFGIRVYTVGVGTRGEAPFPIQTEFGVRIQNVPVDIDEPTLDGIAEVSGGKYFRAVDNETLNEIYKEIDKLEKTRLMTKSFKAYEEK | not soluble |
| MGQSTSKVPPSSPPNEPKFVQNTPISSPGFGRAQTMLDVSQLAAAAATLDAPTLQRSSSDTALNTSMTTTTVTQTACQKSYQQALEWGRNEQFLKLAHTFHTNNY | not soluble |
| MGSDKIHHHHHHMTLRLHEYVEKESFNHPYTFVAAQTGLDEKTVRDIFNARAEFLGRWHRFETPRILGIDELYLNKRYRCILTNIEERTLLDLLATRRQNVVTNYLMKLKDRQKVEIVSMDMWNPYRAAVKAVPPQARIVVDKFHVVRMANDALERVRKGLRKELKPSQSRTLKGDRKILLKRAHEVSDRERLIMETWTGAFPQLLAAYEHKERFYGIWDATTRLQAEAALDEWIATIPKGQKEVWSDLVRAVGNWREETMTYFETDMPVTNAYTESINRLAKDKNREGRGYSFEVMRARMLYTTKHKKKAPTAKVSPFYKKTIGYGLPDFAEELNYGVDLSTI | not soluble |
| NKNFSWNTDWTYSLNREKIKALNSGVTRDEGNLWFVGSPTQVFYDYKKIGIWQLGEEVQAKAFGGFKPGDIKVADMSPKGSEGEGVFSTDDRVIFSRVPKYTFGITNNIIYKNFDLMFFIYGRIGQYVKDAYTQLYKPSALENSAPVNYWTPENPSNEYPRPNSGYSTNSYLLQSSLAFRKASFVKIRDITLGYTLPKEWTSKMMVQKLRIYCSLNNFITFTDFPNYDPESNGSMDFPLAKQVLFGINLSL | not soluble |
| GPGSMNPYYAAPPPPPQQQQSRPSVDLDDLFGGPTAANEHKPFHAAPGEPAPPSYDALNGGYSSAPPPAHHAAASEPQQSHNGNISGNQSLYYGAAHQQQQQQQSYGVPAAVPASASPYGMSSPPPAFSSSSSITPGTAPPLQPQPQQQQYGAYPAMPASGMAPPAPPLQQQPPQVYVQPQPQPQPMPGPVHQQQQSFAQNSSSSVSPSGAAAVAGPTAAAGVGSGAASSRSAEEEDRLQLERIIRLRRELELEQEREQRKKEELQTWGCPICTFRNKLNEVKCEMCGSTRPGYTAPASTEPPAQHQQQQHQPRPAATPSQVNAGVTDWQCGMCLAPNEAHAERCKVCYAYRSSGIPVPTASPSGAAANANHNGVVSNTPFTTNWKCSVCGEVNPPSKANCKVCSGFQRNGTAVTDAVPAPSTGSGHGAQATSSADPPLPTVWSCSVCTFENSVSAAVCKACESGQRPRHLAPKRDKEKSASSKQHDSRGSGAKDGGGDGEKKCSSSKSQWPCGTCTFLNPIGRKKCDMCGAKRPESYAAEADTTEARAAAKQEAQDDAEEVAWQDDDSVTECNNCHTTFTFLIRRHHCRLCGYVFCAHCSSYSVPLTMGSLPQRVCVNCYKARLEEEKKTKKARRWLDS | soluble |
| MLTYQVKQGDTLNSIAADFRISTAALLQANPSLQAGLTAGQSIVIPGLPDPYTIPYHIAVSIGAKTLTLSLNNRVMKTYPIAVGKILTQTPTGEFYIINRQRNPGGPFGAYWLSLSKQHYGIHGTNNPASIGKAVSKGCIRMHNKDVIELASIVPNGTRVTINR | soluble |
| DVQLVESGGGSVQAGGSLRLSCAASGSTDSIEYMTWFRQAPGKAREGVAALYTHTGNTYYTDSVKGRFTISQDKAKNMAYLRMDSVKSEDTAIYTCGATRKYVPVRFALDQSSYDYWGQGTQVTVSSRGRHHHHHH | soluble |
| MKILLEVKYMTKFQVAYVPVGVPTFHLESAQKEFEKSIDLLNTITDAAIVPDKMLLSIQDLTNFLDTIEPSLIILQNITFANAAYASEVLKRFSCPVLLWTLREPVIDGGRLRLNSLTGAYSAGNALAAFRDGNFEYIFGAPQEERTKKTISACIRAAWLKNELKNLRIASVGHTPQGFGFGRAMDADMQKVFGATLESIEVRELIDMAKGYTDDECSEYLDKMTKCTVGLDKTPDNNRKDFARLCKAYKEYVDENNIGALSSRCWPDFFTAFGTPVCGVLAMLNDMGVAASCEADTYGALSMYMGMKLSEQAVFFGDPVSLDESENTITFWHCGTAACSIAREDTGATIGVHPNRKIGPVMDFGCKAADKVTVFRVGQKADGSFRFFVTTGSALDKPKQFCGTSIVVRTDKNSYDIVNQSVKDGWEPHFVVIYGDCSDELKVLGHMLEIEVCEY | not soluble |
| MYNIGDKIVYPMHGAGVIESIEEREILGKKQSYYVVKIPIGEMKVLIPIKNVDGIGIREVISEEDADKVFLILKNKALPSNTNWNKRYRENMSKIKSGNIFEVADVVRCLMLRDKLKGLSTGEKKMLNSAKQILISELVLAKNMNPMEIEGMIDKYIS | soluble |
| MGSDKIHHHHHHMTTFYSLKVARVEPETRDAVTITFAIPQALQAEYCFRPGQHLTLKARLGGEELRRCYSICRSRTPGEISVAVKAIDGGRFSRYAQQDIQQGMELEVMVPQGHFGYQPQAERQGEYLAIAAGSGITPMMAIISATLATEPQSRFTLIYGNRSSHSMMFRQALADLKDRYPQRLQVIHLFSQESMDSDLLQGRIDGDKLRQLADHLLDFSRFDEAFICGPAAMMDEAEATLRELGVAEKSIHLERFNTPGGNVKRVAGVQAEGRTVTIRQDGRDRLIALSAEDDSILDAALRQGADLPFACKGGVCATCKCKVLRGEVAMAANYSLEADELAAGYVLSCQSLPTSGDVVVDFDARGMA | not soluble |
| PLGSDGLPLDPRDWTRADVWKWLINMAVSEGLEVTAELPQKFPMNGKALCLMSLDMYLCRVPVGGKMLYRDFRVRLARAMSR | soluble |
| MFRAMSTRKIHGGYEKLGDEEARLKRVSSVPASVYGHSRNPVQEVKKTPTAKPTGGSVHPLFSFFDVHFQRKKKNTAKKKSLATAKPEFARYMEYVREGGVWDPSSNAPVIHYR | not soluble |
| MGSDKIHHHHHHMLLMPTKDWRWEFNEEYGQLALSLDTQMSFLTAYKTKMLIPDALKGMKFSVEHAKFYIRMLERLPQLLTLSDAMIVQTALNATAAHFLLKPQMPKSWFFDVSDECVYFDLGKVFQLKNNQQSMLVLVVEVGLQSVLVMNLSAACQLSDNKSLGQFDTIKVMHDRLHPLSRAKQIVAA | not soluble |
| MKLGVIAAMDLELQKLLEYFPPQRKIQLAKNTFYIYEQKTSQVIMVCAGQGKTNATLYSQILIDSFQIEQLINIGICGCLNEKLQLFEMVLGEEYCHYDIRERQSINKFPYQLYYKGDKGMLAELQHLDEKIKCVRFGTGEGFVCDTTEKRNLIEQFSIDCVDMESAAIAQCCFLNDCAFVSIRIICDRADANAVKVTEDTQTQAMEKVFELVCAYIN | not soluble |
| PPHVKYIKEKEICDYEPSSDAGHFRWYPKGKLIRDLLSDYVYNLVVENGGMPVETPVMYDLQNNAIREHADKFGERQYRFKQGNKDLMLRFAACFGQFMMKKDMYLLPKHMPLKLYELSTYSFRYEQRGELVGLKRLRAFTMPDMHTVCIDMKQAMEAFEDQLWMGLKTGDDFKTPYAIIFRFTEDFFEENKEWFFGMAKEYKQKYGKDAILEILPGRKHYWVGKVDMAVVDSFGRPIENPTVQIDVESAERFGIVVHDGDKKVQPIILHCSPTGSVERVLCGLLEN | not soluble |
| MSLKRMLAEFEKIQAILMAFPHEFSDWAYCIKEARESFLNIIQTIAKHAKVLVCVHTNDTIGYEMLKNLPGVEIAKVDTNDTWARDFGAISIENHGVLECLDFGFNGWGLKYPSNLDNQVNFKLKSLGFLKHPLKTMPYVLEGGSIESDGAGSILTNTQCLLEKNRNPHLNQNGIETMLKKELGAKQVLWYSYGYLKGDDTDSHTDTLARFLDKDTIVYSACEDKNDEHYTALKKMQEELKTFKKLDKTPYKLIPLEIPKAIFDENQQRLPATYVNFLLCNDALIVPTYNDPKDALILETLKQHTPLEVIGVDCNTLIKQHGSLHCVTMQLYEGGSHHHHHH | soluble |
